US10808249B2, “Methods and compositions for weed control” (Monsanto Technology LLC, priority 2011, dated 2020)

Tested on: Glyphosate-sensitive Palmer amaranth (A. palmeri R-22) plants
Assay: Palmer amaranth pre-treated with PDS trigger oligonucleotides, then norflurazon
Assay type: in vivo, Amaranthus palmeri
Conditions: mixture of oligonucleotides incl. SEQ ID NO: 2137 at 0.8 nmol, 0.5% Silwet L-77; norflurazon 675 g ai/ha 24 and 48 h later; compared with norflurazon alone
Description: Glyphosate-sensitive Palmer amaranth (A. palmeri R-22) plants were grown in the greenhouse (30/20 C day/night T; 14 hour photoperiod) in 4 inch square pots containing Sun Gro® Redi-Earth and 3.5 kg/cubic meter Osmocote® 14-14-14 fertilizer. Palmer amaranth plants at 5 to 10 cm in height were pre-treated with a mixture of oligonucleotides one of which was a SEQ ID NO: 2137 at 0.8 nmol comprising at least one oligonucleotide targeting PDS coding or noncoding regions, formulated in 10 millimolar sodium phosphate buffer (pH 6.8) containing 2% ammonium sulfate and 0.5% Silwet L-77. Plants were treated manually by pipetting 10 μL of polynucleotide solution on four fully expanded mature leaves, for a total of 40 microliters of solution per plant. Twenty-four and forty-eight hours later, the plants were treated with norflurazon (Solicam®, Syngenta, Greensboro, N.C.) at 675 g ai/ha, crop oil concentrate (COC) at 1% is added to the herbicide treatments. Four replications of each treatment was conducted. Plant height is determined just before ssDNA treatment and at intervals upto twelve days after herbicide treatments to determine effect of the oligonucleotide and herbicide treatments.

B1: SEQ ID NO: 2137: ssDNA trigger oligonucleotide targeting PDS, one of a mixture applied to Palmer amaranth before norflurazon (nucleic acid, listed as Amaranthus palmeri)
antisense: ACCGAUUCCUGCAGGAGAAACAUGGUUCUAAGAUGGCCUUCCUAGACGGAAACCCUCCAGAGAGGCUGUGCAUGCCUAUUGUUAAACACAUCGAGUCACUAGGUGGUGAAGUUAAACUUAACUCUCGUAUACAAAAGAUUCAGUUGGACCAGAGUGGAAGCGUGAAGAGUUUUUUGCUAAAUAACGGGAGG
injury to the plants (FIG. 1): more injury to the plants than the norflurazon alone
